According to article PMC6128611, “The molecular structure of Schistosoma mansoni PNP isoform 2 provides insights into the nucleoside selectivity of PNPs” (PLoS ONE, 2018):

Tests used:
[1] = target: T1, SmPNP2 (purine nucleoside phosphorylase isoform 2) (Schistosoma mansoni, UniProt A0A0U3AGT1); experiment: ITC; crystal structure at […] Å; assay type: binding
T1 construct: ORF of 287 amino acids, 6His-SUMO tag cleaved
T1 sequence (A0A0U3AGT1 1-287): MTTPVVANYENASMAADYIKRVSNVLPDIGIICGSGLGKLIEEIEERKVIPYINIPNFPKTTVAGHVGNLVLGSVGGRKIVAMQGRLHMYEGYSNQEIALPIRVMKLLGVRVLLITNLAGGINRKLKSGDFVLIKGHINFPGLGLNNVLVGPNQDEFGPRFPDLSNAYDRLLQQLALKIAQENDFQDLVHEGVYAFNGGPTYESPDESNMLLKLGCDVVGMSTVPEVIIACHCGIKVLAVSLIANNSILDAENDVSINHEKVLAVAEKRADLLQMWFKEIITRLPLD

[2] = target: T1, SmPNP2 (purine nucleoside phosphorylase isoform 2); experiment: crystal structure at […] Å (soaking); assay type: binding
[3] = target: T1, SmPNP2 (purine nucleoside phosphorylase isoform 2); experiment: crystal structure at […] Å, ternary complex with cytosine; assay type: binding
[4] = substrate: OC[C@H]1O[C@@H](n2cnc3c(O)ncnc32)[C@H](O)[C@@H]1O; experiment: xanthine oxidase-coupled phosphorolysis kinetics (KM); assay type: biochemical, Schistosoma mansoni; conditions: phosphate (co-substrate)
[5] = substrate: Nc1ncnc2c1ncn2[C@@H]1O[C@H](CO)[C@@H](O)[C@H]1O; experiment: as above; assay type: biochemical, Schistosoma mansoni; conditions: phosphate (co-substrate)
purified protein = substrate: Nc1ccn([C@@H]2O[C@H](CO)[C@@H](O)[C@H]2O)c(=O)n1; experiment: purified protein; conditions: active site; direct H-bonds of base with Met221 and Glu203, ribose O5 with His259 and Tyr202

`Nc1cc[nH]c(=O)n1` [CYT, cytosine] gave a Kd [1] of 27 µM.

In the case of `Nc1ncnc2c1ccn2[C@@H]1O[C@H](CO)[C@@H](O)[C@H]1O` [tubercidin], the “crystal structure at 1.95 Å (soaking)” value [2] is reported as “three complexes were obtained: SmPNP2–tubercidin (7-deaza-adenosine), SmPNP2–hypoxanthine and SmPNP2–adenine”.

With `O=P(O)(O)O[C@H]1O[C@H](CO)[C@@H](O)[C@H]1O` [R1P, ribose-1-phosphate] the “crystal structure at 1.42 Å, ternary complex with cytosine” value [3] was “As expected the R1P binds in SmPNP2 in a similar way to that observed for SmPNP1–R1P complex”.

B1: SmPNP2 (purine nucleoside phosphorylase isoform 2) (Schistosoma mansoni) (protein)
chain: MTTPVVANYENASMAADYIKRVSNVLPDIGIICGSGLGKLIEEIEERKVIPYINIPNFPKTTVAGHVGNLVLGSVGGRKIVAMQGRLHMYEGYSNQEIALPIRVMKLLGVRVLLITNLAGGINRKLKSGDFVLIKGHINFPGLGLNNVLVGPNQDEFGPRFPDLSNAYDRLLQQLALKIAQENDFQDLVHEGVYAFNGGPTYESPDESNMLLKLGCDVVGMSTVPEVIIACHCGIKVLAVSLIANNSILDAENDVSINHEKVLAVAEKRADLLQMWFKEIITRLPLD
notes: ORF of 287 amino acids, 6His-SUMO tag cleaved
With B1 the Km [4] was 136.4 µM, the Vmax [4] was 360 µM/min and the kcat [4] was 7 ± 0.2 s⁻¹. For the same molecule, the kcat/Km [4] was 50600 ± 2900 M⁻¹ s⁻¹, the Km [5] was 22.3 µM and the Vmax [5] was 60 µM/min. For the same molecule, the kcat [5] was 1.02 ± 0.02 s⁻¹, the kcat/Km [5] was 46000 ± 5200 M⁻¹ s⁻¹ and the Km (purified protein) was 76.3 µM. It also gave a Vmax (purified protein) of 60 µM/min, a kcat (purified protein) of 2 s⁻¹ and a kcat/Km (purified protein) of 26200 M⁻¹ s⁻¹.
